Results as given in publication PMC8274477 (Frontiers in Cell and Developmental Biology, 2021).

B1: EIF4H (natural protein)
chain: not shown
notes: EIF4H; protein on the human proteome microarray; source: spotted on the HuProt human proteome microarray
B2: GCLM (natural protein, human, UniProt P48507 1-274, looked up)
chain: MGTDSRAAKALLARARTLHLQTGNLLNWGRLRKKCPSTHSEELHDCIQKTLNEWSSQINPDLVREFPDVLECTVSHAVEKINPDEREEMKVSAKLFIVESNSSSSTRSAVDMACSVLGVAQLDSVIIASPPIEDGVNLSLEHLQPYWEELENLVQSKKIVAIGTSDLDKTQLEQLYQWAQVKPNSNQVNLASCCVMPPDLTAFAKQFDIQLLTHNDPKELLSEASFQEALQESIPDIQAHEWVPLWLLRYSVIVKSRGIIKSKGYILQAKRRGS
notes: GCLM; protein on the human proteome microarray; source: spotted on the HuProt human proteome microarray
B3: CRYZ (natural protein, human, UniProt Q08257 1-329, looked up)
chain: MATGQKLMRAVRVFEFGGPEVLKLRSDIAVPIPKDHQVLIKVHACGVNPVETYIRSGTYSRKPLLPYTPGSDVAGVIEAVGDNASAFKKGDRVFTSSTISGGYAEYALAADHTVYKLPEKLDFKQGAAIGIPYFTAYRALIHSACVKAGESVLVHGASGGVGLAACQIARAYGLKILGTAGTEEGQKIVLQNGAHEVFNHREVNYIDKIKKYVGEKGIDIIIEMLANVNLSKDLSLLSHGGRVIVVGSRGTIEINPRDTMAKESSIIGVTLFSSTKEEFQQYAAALQAGMEIGWLKPVIGSQYPLEKVAEAHENIIHGSGATGKMILLL
notes: CRYZ; protein on the human proteome microarray; source: spotted on the HuProt human proteome microarray
B4: CSRP1 (natural protein, human, UniProt P21291 1-193, looked up)
chain: MPNWGGGKKCGVCQKTVYFAEEVQCEGNSFHKSCFLCMVCKKNLDSTTVAVHGEEIYCKSCYGKKYGPKGYGYGQGAGTLSTDKGESLGIKHEEAPGHRPTTNPNASKFAQKIGGSERCPRCSQAVYAAEKVIGAGKSWHKACFRCAKCGKGLESTTLADKDGEIYCKGCYAKNFGPKGFGFGQGAGALVHSE
notes: CSRP1; protein on the human proteome microarray; source: spotted on the HuProt human proteome microarray
B5: GBGT1 (natural protein, human, UniProt Q8N5D6 1-347, looked up)
chain: MHRRRLALGLGFCLLAGTSLSVLWVYLENWLPVSYVPYYLPCPEIFNMKLHYKREKPLQPVVWSQYPQPKLLEHRPTQLLTLTPWLAPIVSEGTFNPELLQHIYQPLNLTIGVTVFAVGKYTHFIQSFLESAEEFFMRGYRVHYYIFTDNPAAVPGVPLGPHRLLSSIPIQGHSHWEETSMRRMETISQHIAKRAHREVDYLFCLDVDMVFRNPWGPETLGDLVAAIHPSYYAVPRQQFPYERRRVSTAFVADSEGDFYYGGAVFGGQVARVYEFTRGCHMAILADKANGIMAAWREESHLNRHFISNKPSKVLSPEYLWDDRKPQPPSLKLIRFSTLDKDISCLRS
notes: GBGT1; protein on the human proteome microarray; source: spotted on the HuProt human proteome microarray
B6: ISG20 (natural protein)
chain: not shown
notes: ISG20; protein on the human proteome microarray; source: spotted on the HuProt human proteome microarray
B7: CDCA3 (natural protein, human, UniProt Q99618 1-268, looked up)
chain: MGSAKSVPVTPARPPPHNKHLARVADPRSPSAGILRTPIQVESSPQPGLPAGEQLEGLKHAQDSDPRSPTLGIARTPMKTSSGDPPSPLVKQLSEVFETEDSKSNLPPEPVLPPEAPLSSELDLPLGTQLSVEEQMPPWNQTEFPSKQVFSKEEARQPTETPVASQSSDKPSRDPETPRSSGSMRNRWKPNSSKVLGRSPLTILQDDNSPGTLTLRQGKRPSPLSENVSELKEGAILGTGRLLKTGGRAWEQGQDHDKENQHFPLVES
notes: CDCA3; protein on the human proteome microarray; source: spotted on the HuProt human proteome microarray
B8: HTATIP2 (natural protein, human, UniProt Q9BUP3 1-242, looked up)
chain: MAETEALSKLREDFRMQNKSVFILGASGETGRVLLKEILEQGLFSKVTLIGRRKLTFDEEAYKNVNQEVVDFEKLDDYASAFQGHDVGFCCLGTTRGKAGAEGFVRVDRDYVLKSAELAKAGGCKHFNLLSSKGADKSSNFLYLQVKGEVEAKVEELKFDRYSVFRPGVLLCDRQESRPGEWLVRKFFGSLPDSWASGHSVPVVTVVRAMLNNVVRPRDKQMELLENKAIHDLGKAHGSLKP
notes: HTATIP2; protein on the human proteome microarray; source: spotted on the HuProt human proteome microarray
B9: GSTZ1 (natural protein, human, UniProt O43708 1-216, looked up)
chain: MQAGKPILYSYFRSSCSWRVRIALALKGIDYKTVPINLIKDRGQQFSKDFQALNPMKQVPTLKIDGITIHQSLAIIEYLEEMRPTPRLLPQDPKKRASVRMISDLIAGGIQPLQNLSVLKQVGEEMQLTWAQNAITCGFNALEQILQSTAGIYCVGDEVTMADLCLVPQVANAERFKVDLTPYPTISSINKRLLVLEAFQVSHPCRQPDTPTELRA
notes: GSTZ1; protein on the human proteome microarray; source: spotted on the HuProt human proteome microarray
B10: DECR2 (natural protein, human, UniProt Q9NUI1 1-292, looked up)
chain: MAQPPPDVEGDDCLPAYRHLFCPDLLRDKVAFITGGGSGIGFRIAEIFMRHGCHTVIASRSLPRVLTAARKLAGATGRRCLPLSMDVRAPPAVMAAVDQALKEFGRIDILINCAAGNFLCPAGALSFNAFKTVMDIDTSGTFNVSRVLYEKFFRDHGGVIVNITATLGNRGQALQVHAGSAKAAVDAMTRHLAVEWGPQNIRVNSLAPGPISGTEGLRRLGGPQASLSTKVTASPLQRLGNKTEIAHSVLYLASPLASYVTGAVLVADGGAWLTFPNGVKGLPDFASFSAKL
notes: DECR2; protein on the human proteome microarray; source: spotted on the HuProt human proteome microarray
B11: CYB5R1 (natural protein, human, UniProt Q9UHQ9 1-305, looked up)
chain: MGIQTSPVLLASLGVGLVTLLGLAVGSYLVRRSRRPQVTLLDPNEKYLLRLLDKTTVSHNTKRFRFALPTAHHTLGLPVGKHIYLSTRIDGSLVIRPYTPVTSDEDQGYVDLVIKVYLKGVHPKFPEGGKMSQYLDSLKVGDVVEFRGPSGLLTYTGKGHFNIQPNKKSPPEPRVAKKLGMIAGGTGITPMLQLIRAILKVPEDPTQCFLLFANQTEKDIILREDLEELQARYPNRFKLWFTLDHPPKDWAYSKGFVTADMIREHLPAPGDDVLVLLCGPPPMVQLACHPNLDKLGYSQKMRFTY
notes: CYB5R1; protein on the human proteome microarray; source: spotted on the HuProt human proteome microarray
B12: DNALI1 (natural protein, human, UniProt O14645 1-258, looked up)
chain: MIPPADSLLKYDTPVLVSRNTEKRSPKARLLKVSPQQPGPSGSAPQPPKTKLPSTPCVPDPTKQAEEILNAILPPREWVEDTQLWIQQVSSTPSTRMDVVHLQEQLDLKLQQRQARETGICPVRRELYSQCFDELIREVTINCAERGLLLLRVRDEIRMTIAAYQTLYESSVAFGMRKALQAEQGKSDMERKIAELETEKRDLERQVNEQKAKCEATEKRESERRQVEEKKHNEEIQFLKRTNQQLKAQLEGIIAPKK
notes: DNALI1; protein on the human proteome microarray; source: spotted on the HuProt human proteome microarray
B13: KHDRBS3 (natural protein, human, UniProt O75525 1-346, looked up)
chain: MEEKYLPELMAEKDSLDPSFTHALRLVNQEIEKFQKGEGKDEEKYIDVVINKNMKLGQKVLIPVKQFPKFNFVGKLLGPRGNSLKRLQEETLTKMSILGKGSMRDKAKEEELRKSGEAKYFHLNDDLHVLIEVFAPPAEAYARMGHALEEIKKFLIPDYNDEIRQAQLQELTYLNGGSENADVPVVRGKPTLRTRGVPAPAITRGRGGVTARPVGVVVPRGTPTPRGVLSTRGPVSRGRGLLTPRARGVPPTGYRPPPPPPTQETYGEYDYDDGYGTAYDEQSYDSYDNSYSTPAQSGADYYDYGHGLSEETYDSYGQEEWTNSRHKAPSARTAKGVYRDQPYGRY
notes: KHDRBS3; protein on the human proteome microarray; source: spotted on the HuProt human proteome microarray
B14: FAM49B (natural protein, human, UniProt Q9NUQ9 1-324, looked up)
chain: MGNLLKVLTCTDLEQGPNFFLDFENAQPTESEKEIYNQVNVVLKDAEGILEDLQSYRGAGHEIREAIQHPADEKLQEKAWGAVVPLVGKLKKFYEFSQRLEAALRGLLGALTSTPYSPTQHLEREQALAKQFAEILHFTLRFDELKMTNPAIQNDFSYYRRTLSRMRINNVPAEGENEVNNELANRMSLFYAEATPMLKTLSDATTKFVSENKNLPIENTTDCLSTMASVCRVMLETPEYRSRFTNEETVSFCLRVMVGVIILYDHVHPVGAFAKTSKIDMKGCIKVLKDQPPNSVEGLLNALRYTTKHLNDETTSKQIKSMLQ
notes: FAM49B; protein on the human proteome microarray; source: spotted on the HuProt human proteome microarray
B15: CUTA (natural protein, human, UniProt O60888 33-179, looked up)
chain: RLLLLPRVLLTMASGSPPTQPSPASDSGSGYVPGSVSAAFVTCPNEKVAKEIARAVVEKRLAACVNLIPQITSIYEWKGKIEEDSEVLMMIKTQSSLVPALTDFVRSVHPYEVAEVIALPVEQGNFPYLQWVRQVTESVSDSITVLP
notes: CUTA; protein on the human proteome microarray; source: spotted on the HuProt human proteome microarray
B16: GAPDH (natural protein)
chain: not shown
notes: GAPDH; protein on the human proteome microarray; source: spotted on the HuProt human proteome microarray
B17: CSRP3 (natural protein, human, UniProt P50461 1-194, looked up)
chain: MPNWGGGAKCGACEKTVYHAEEIQCNGRSFHKTCFHCMACRKALDSTTVAAHESEIYCKVCYGRRYGPKGIGYGQGAGCLSTDTGEHLGLQFQQSPKPARSVTTSNPSKFTAKFGESEKCPRCGKSVYAAEKVMGGGKPWHKTCFRCAICGKSLESTNVTDKDGELYCKVCYAKNFGPTGIGFGGLTQQVEKKE
notes: CSRP3; protein on the human proteome microarray; source: spotted on the HuProt human proteome microarray
B18: CCNB1IP1 (natural protein, human, UniProt Q9NPC3 1-277, looked up)
chain: MSLCEDMLLCNYRKCRIKLSGYAWVTACSHIFCDQHGSGEFSRSPAICPACNSTLSGKLDIVRTELSPSEEYKAMVLAGLRPEIVLDISSRALAFWTYQVHQERLYQEYNFSKAEGHLKQMEKIYTQQIQSKDVELTSMKGEVTSMKKVLEEYKKKFSDISEKLMERNRQYQKLQGLYDSLRLRNITIANHEGTLEPSMIAQSGVLGFPLGNNSKFPLDNTPVRNRGDGDGDFQFRPFFAGSPTAPEPSNSFFSFVSPSRELEQQQVSSRAFKVKRI
notes: CCNB1IP1; protein on the human proteome microarray; source: spotted on the HuProt human proteome microarray
B19: GTF2B (natural protein, human, UniProt Q00403 1-316, looked up)
chain: MASTSRLDALPRVTCPNHPDAILVEDYRAGDMICPECGLVVGDRVIDVGSEWRTFSNDKATKDPSRVGDSQNPLLSDGDLSTMIGKGTGAASFDEFGNSKYQNRRTMSSSDRAMMNAFKEITTMADRINLPRNIVDRTNNLFKQVYEQKSLKGRANDAIASACLYIACRQEGVPRTFKEICAVSRISKKEIGRCFKLILKALETSVDLITTGDFMSRFCSNLCLPKQVQMAATHIARKAVELDLVPGRSPISVAAAAIYMASQASAEKRTQKEIGDIAGVADVTIRQSYRLIYPRAPDLFPTDFKFDTPVDKLPQL
notes: GTF2B; protein on the human proteome microarray; source: spotted on the HuProt human proteome microarray
B20: C9orf9 (natural protein, human, UniProt Q96E40 1-222, looked up)
chain: MNEVKESLRSIEQKYKLFQQQQLTFTAALEHCRENAHDKIRPISSIGQVQSYMEHYCNSSTDRRVLLMFLDICSELNKLCQHFEAVHSGTPVTNNLLEKCKTLVSQSNDLSSLRAKYPHDVVNHLSCDEARNHYGGVVSLIPLILDLMKEWIAHSEKLPRKVLQHVSEPQAHQESTRGAARPAQAIGTQPRATKHKCRQLTKASLKPRGCSKPPWRPPGGKL
notes: C9orf9; protein on the human proteome microarray; source: spotted on the HuProt human proteome microarray

The binders below were run against T1, OTULIN (OTU deubiquitinase with linear linkage specificity, FAM105B), His-tagged, biotin-labelled (human, UniProt Q96BN8 1-352, biotin (label; sites not stated)) (assay: peptide or protein array; HuProt human proteome microarray; 5 ug/5 ml biotin-labelled LUBAC or OTULIN in solution, 1 h at room temperature; Cy5-streptavidin, scanned at 635 nm; BSA as negative control; hits: Z-score >= 3 and I_(Mean_Ratio) >= 1.4). Details: both partners purified.
T1 construct: OTULIN (FAM105B), cDNA in pET28a; also called HIS-OTULIN; source: E. coli BL21 (DE3), purified (His-tag Purification Resin), labelled with biotin; not shown: His6, N-terminal, kept
B1: binds. B2: binds. B3: binds. B4: binds. B5: binds. B6: binds. B7: binds. B8: binds. B9: binds. B10: binds. B11: binds. B12: binds. B13: binds. B14: binds. B15: binds. B16: binds. B17: binds. B18: binds. B19: binds. B20: binds.
